Experimental data published in patent US20030215852A1 (Pfizer, published 2003).

Molecular target: T1, Pablo (pro-apoptotic Bcl-XL binding protein) (human, UniProt Q92558 1-559)
T1 sequence: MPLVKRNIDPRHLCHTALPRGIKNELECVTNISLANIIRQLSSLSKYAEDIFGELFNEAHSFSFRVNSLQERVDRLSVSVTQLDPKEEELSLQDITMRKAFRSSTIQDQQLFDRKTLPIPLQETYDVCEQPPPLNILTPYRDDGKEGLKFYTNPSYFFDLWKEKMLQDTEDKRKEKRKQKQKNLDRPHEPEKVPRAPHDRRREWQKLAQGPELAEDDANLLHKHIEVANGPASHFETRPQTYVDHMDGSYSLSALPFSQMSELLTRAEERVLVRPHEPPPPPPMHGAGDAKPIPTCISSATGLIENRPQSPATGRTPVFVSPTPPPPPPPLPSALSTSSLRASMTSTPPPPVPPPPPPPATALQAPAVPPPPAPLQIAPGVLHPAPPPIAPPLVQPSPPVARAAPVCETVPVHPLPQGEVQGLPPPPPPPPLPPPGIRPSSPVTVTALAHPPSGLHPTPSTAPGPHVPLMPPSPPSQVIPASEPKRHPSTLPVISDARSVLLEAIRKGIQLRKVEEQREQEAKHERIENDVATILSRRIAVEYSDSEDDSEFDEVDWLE
Test: yeast two-hybrid assay

B1: pancortin 1 (other)
chain: MITNWMSQTLPSLVGLNTTKLSAAGGGTLDRSTGVLPTNPEESWQVYSSAQDSEGRCICTVVAPQQTMCSRDARTKQLRQLLEKVQNMSQSIEVLDRRTQRDLQYVEKMENQMKGLESKFKQVEESHKQHLARQFKAIKAKMDELRPLIPVLEEYKADAKLVLQFKEEVQNLTSVLNELQEEIGAYDYDELQSRVSNLEERLRACMQKLACGKLTGISDPVTVKTSGSRFGSWMTDPLAPEGDNRVWYMDGYHNNRFVREYKSMVDFMNTDNFTSHRLPHPWSGTGQVVYNGSIYFNKFQSHIIIRFDLKTETILKTRSLDYAGYNNMYHYAWGGHSDIDLMVDESGLWAVYATNQNAGNIVVSRLDPVSLQTLQTWNTSYPKRSAGEAFIICGTLYVTNGYSGGTKVHYAYQTNASTYEYIDIPFQNKYSHISMLDYNPKDRALYAWNNGHQILYNVTLFHVIRSDEL
notes: Tested in a yeast two-hybrid assay; also called BMZ
B1: no binding.
